Measurements as given in the DeepSol protein solubility set.

Assay: soluble on expression in E. coli; label from the status in PepcDB or PDB records

Row | Sequence | soluble on expression in E. coli
1 | MSDLETVAKFLAESVIASTAKTSERNLRQLETQDGFGLTLLHVIASTNLPLSTRLAGALFFKNFIKRKWVDENGNHLLPANNVELIKKEIVPLMISLPNNLQVQIGEAISSIADSDFPDRWPTLLSDLASRLSNDDMVTNKGVLTVAHSIFKRWRPLFRSDELFLEIKLVLDVFTAPFLNLLKTVDEQITANENNKASLNILFDVLLVLIKLYYDFNCQDIPEFFEDNIQVGMGIFHKYLSYSNPLLEDPDETEHASVLIKVKSSIQELVQLYTTRYEDVFGPMINEFIQITWNLLTSISNQPKYDILVSKSLSFLTAVTRIPKYFEIFNNESAMNNITEQIILPNVTLREEDVELFEDDPIEYIRRDLEGSDTDTRRRACTDFLKELKEKNEVLVTNIFLAHMKGFVDQYMSDPSKNWKFKDLYIYLFTALAINGNITNAGVSSTNNLLNVVDFFTKEIAPDLTSNNIPHIILRVDAIKYIYTFRNQLTKAQLIELMPILATFLQTDEYVVYTYAAITIEKILTIRESNTSPAFIFHKEDISNSTEILLKNLIALILKHGSSPEKLAENEFLMRSIFRVLQTSEDSIQPLFPQLLAQFIEIVTIMAKNPSNPRFTHYTFESIGAILNYTQRQNLPLLVDSMMPTFLTVFSEDIQEFIPYVFQIIAFVVEQSATIPESIKPLAQPLLAPNVWELKGNIPAVTRLLKSFIKTDSSIFPDLVPVLGIFQRLIASKAYEVHGFDLLEHIMLLIDMNRLRPYIKQIAVLLLQRLQNSKTERYVKKLTVFFGLISNKLGSDFLIHFIDEVQDGLFQQIWGNFIITTLPTIGNLLDRKIALIGVLNMVINGQFFQSKYPTLISSTMNSIIETASSQSIANLKNDYVDLDNLEEISTFGSHFSKLVSISEKPFDPLPEIDVNNGVRLYVAEALNKYNAISGNTFLNTILPQLTQENQVKLNQLLVGNRSHHHHHH | soluble
2 | MSLTLSPTTIFPARCIHTMNATQPRATHVAVREGRILDVGDASLREAWPDAVVDSRFSDKVLLPGLIEGHSHLLEGGMWRFVYVGYYDRRGPDGRVWPGLKSYEAVIERLRAAEALMPDAQAPLLAWGFDPIHFGGQRMTTCHLDQVSKTRRIVVLHASVHLLNVNTAMLRQADIHAGLRIDGIVRAADGTPTGELQEFAAMFMVFKHIGNVFFDAGQSEEGIRNFAKIAQQAGVTTATDLSHALADDMVDNLVRVTGEDDFPLRLVAAYSPMRDMNGRSVDRVVRATQRNTAKLHFGLVKLVIDGSIQGYTARVRWPGYHNGAPNGMWIIAPQQLRELLMEYHKAGLTIHIHTNGDEATEVAMDALESVLAEYPRWDHRHTLQHCQMADAAQFRRMARLGMCANLFANHLYFWGDAHYTDTLGPARAFRMNAAKTALQAGVPISLHSDAPITPIGPLFTAWCAVNRVTAGGRILGSQERIPVMDALHAMTLGAAYTLKLDHLIGSIEVGKLADFAVLEADPLEVAPQDLAGIGIWGTVLGGRSFPAPQLSEGHHHHHH | soluble
3 | MGSDKIHHHHHHMETLFRSFRTQLEHTSTEVVRFLHDQIAWDSRLVAILGARGVGKTTLLLQHIKLYDREDESLYVTADDFYFTKYRLFDMAYQFYNLGGKKLYIDEIHKYKDWSREVKNIYDQIPGLQVIYTGSSILDLEKGGADLSRRKVEYRLPGLSFREYLNISQGWQLPSYSLEEILAGKVEFPYKEARPLKLFNDYLSTGYYPFFQDTEYLLRLRSVINQMVESDIPIFADMTVASAVKLKKLLYVLAQSVPFKPNYTKLARDLDISRNVLPDYMSYLEKAGLVNLLREKAQGLKLLEKVEKIYLNNTNLAYALSEQVPDIGSVRETVFLSWMRVVCFVTSSAISDFEIDGRTFEIGGKNKTRQQIKQAADGYVVKDDIEYAFRNMIPLWMFGFIY | not soluble
4 | AVVATDAYVKRTNIFYHASSSRLLAVGHPYYSIKKVNKTVVPKVSGYQYRVFKVVLPDPNKFALPDSSLFDPTTQRLVWACTGLEVGRGQPLGVGVSGHPLLNKYDDVENSGGYGGNPGQDNRVNVGMDYKQTQLCMVGCAPPLGEHWGKGTQSSNTSVQNGDCPPLELITSVIQDGDMVDTGFGAMNFADLQTNKSDVPLDICGTVCKYPDYLQMAADPYGDRLFFYLRKEQMFARHFFNRAGTVGEPVPDDLLVKGGNNRSSVASSIYVHTPSGSLVSSEAQLFNKPYWLQKAQGHNNGICWGNHLSVTVVDTTRSTNMTLCASVSKSATYTNSDYKEYMRHVEEFDLQFIFQLCSITLSAEVMAYIHTMNPSVLEDWNGGSGGKQDPYKDMSFWEVNLKEKFSSELDQFPLGRKFLLQSGY | soluble
5 | MMRGSHHHHHTDPISYIIRKADSVNKALDSAVPLREPLKIHEAMRYSLLAGGKRVRPVLCIAACELVGGEESLAMPAACAVEMIHTMSLIHDDLPCMDNDDLRRGKPTNHKVYGEDVAVLAGDALLSFAFEHLASATSSEVSPARVVRAVGELAKAIGTEGLVAGQVVDISSEGLDLNNVGLEHLKFIHLHKTAALLEASAVLGGIIGGGSDEEIERLRKFARCIGLLFQVVDDILDVTKSSKLTYPKLMGLEKSREFAEKLNTEARDQLLGFDSDKVAPLLALANYIANRQN | soluble
6 | MGSDKIHHHHHHMQVRRFGRTNWNVSEIGYGMWGASGWKGSDDSQSEQSLDLAVSKGVNFFDTAWGYGEGHSEQLLGKLVKRHQSKKIYVATKIPPMNFKWPSKKSYTIGECFPVSHIKEYTETSLKNLGVEKIDLMQFHVWEDAWATDESWQRAVEDLQKEGKVDAFGISVNRWEPENCLETLKTGLIDSVQVIYNIFDQAPEDALLPLCKKLDIAVIARVPFDEGTLTGTITKDTTFEEGDWRASYFVPENLISSAEHADRLRPILPSGMTMAEMALRFILMNDDIATTIPGMRKERNVLANTGVSDGKKLSLDLYNELKKHRWDREPTSWSQ | not soluble
7 | MSHLNYNHLYYFWMVCKQGSVTKAADALFLTPQTVTGQIKALEDRLDGKLTKRNGRSIEPTELGQLVFKYADRMFGLSYEMLDIVNYSQRSNLLFDVGVADALSKRLVSKILLTSVPGDNRIHLRCFESTHEMLLEQLAQHKLDMILSDCPVDSSQSPGLFSKKLGESRMSFFSFGDVDFAPFPAVLQSKKLLVPGSRTAMGRKVRQWFDRQGLQPHILGEFDDSALMKAFAIYHSDAVFMAPSFYVSEVDAESSLKLIGHVDEIKEEYYVIFAERMIQHPAVKNVCDADFTNLFL | not soluble
8 | MSLATSAFCAISSAALADGGQTKLPLLELPGIEDRDYWVPGEVNVEGKLEAMQAVVGAKAVPFAGTQAEPIQIAMIYPSADTSDFWARNYIAMTKRLEELGIQFETTEFASRQIEHSLQSTYANQVVQDADLYDFVIFGPSELAIQADNIDKMAASEGFSTFVWAFHTPLKDLKNQPDGWFDFSSAAGALTMCDYMLGRLGNDVTMAMNRGIPGITDDQRSGDFKACVEEKGNWTTIYEHYGEYQREGGFEGTSLILQAYPEATVIHNANTAMAMGSVEAQISVGKEKEVFSTGWGGTGLELDAIRRGELDATPMRMGDDVGAATAEAIKAHLEGRSDELPFVFLGRITVAHDQMSAEEIDALEAEAFRFSGVGALEREGHHHHHH | soluble
9 | MSLTTDVKDELSRLVVKSVSARRAEVTSLLRFAGGLHIVGGRVVVEAELDLGSIARRLRKEIFELYGYTAVVHVLSASGIRKSTRYVLRVANDGEALARQTGLLDMRGRPVRGLPAQVVGGSIDDAEAAWRGAFLAHGSLTEPGRSSALEVSCPGPEAALALVGAARRLGVGAKAREVRGADRVVVRDGEAIGALLTRMGAQDTRLVWEERRLRREVRATANRLANFDDANLRRSARAAVAAAARVERALEILGDTVPEHLASAGKLRVEHRQASLEELGRLADPPMTKDAVAGRIRRLLSMADRKAKVDGIPDTESVVTPDLLEDAEGHHHHHH | soluble
10 | MEGSVSEFLTVRLSSQKEADIPWLVWSAEQQEVIASGQVAGWEALHEIESYADQRSVVVLLAASDLILTSVEIPPGASRQLENMLPYLLEDEIAQDVEDVHFCVLSKGRETADVVGVDRLWLRACLDHLKACGFDVKRVLPDVLAIPRPEHGLAALQLGDEWLVRKSTTQGMAVDAQWLSLLAASDWVQNEGEYLPLQALTPLPELSLAETQEWRYEPSGLVMQLLTQEALTSKFNLLTGSFKLKSLEHHHHHH | soluble
11 | MITKLDIQEKDGFLTMKDFPMNCIFNKVKTGCGATTIALTNNENYIITVPTTELIENKCYPTKDADGNVKFWKKHERRAGLSPVVNNLFGLYGNFTLELKKKLKDYLSSVGVKKIICTYDKIDKLMEFINPKDFKLTIDEYHNFLKQYSFRDKAINGVLAHFKEFKSYCFLSATPIPNNLKPAIFNDIPEYIADWNTTDDITVYPYHTDKPYMVAAKFIKTYQAKGCLNVNGIESKEAYFFINSVTEIKAILKQTQLTEDDYRIICADNPKNRRTLEEYTISSSADAPKKFNFITSKSFEGVDFHSETGLCFVVSNVQNRHTLVSIDMDIPQIVGRIRTKSNPFRNKVVHIFNTKATDHYTTFEEMEQIVDKEVKAAQERADMLNNTKLSEAATKQQINEIKKVGIESYLSYQENKFVVNDMVAKLQLYSYYIATVVYQSDKSLRETYAQSGIVTTKGKWHIAPEKFVKELIVKPTFRELHKRYCEIKANPMTFDLQTIDIEHEYPILGRAYRQLGVKELKRLRTIKSIQEALGEA | not soluble
12 | MSLATYFMYPSTGGLNTYIAVLKKTLEAQGYTVDVLARKPGPRLHLLSEEINMNTLRKMMSKPLNHYYKKHGQFSEPYIIKQELDRYVFELSSALLPIETYDLIHAQDVVSTRALARVKPAHIPLVTTIHGLYSEERFNRGVIQTKNDHSWKYSLAQEYIGALSADKVIVLTNWMRQRFQDQLNISSHHFETIPNGMFIEEFTNKLTNKTQVHIPESKKFTILCPARLVAEKDHRTLIDAVQLLKKEREDFICLLAGDGELREELEGYCREKEVQDVCLFLGNRNDIPELMNRSDLVVLPSLQENLPFTVMEAQVAGKPLIVSNAGGLPEMVHDGVTGRLFKKRDSRQLAFILKELMDHDEDRQLLGNNAKDWGRSQWSANTFCEKIKTVYAEALEQKKKEPRLMEFESVNRPTYHTLELHRFFEKSLWKKIDQCLPSNYTIPDPAFIKSLTTYEGHHHHHH | not soluble
13 | MAHHHHHHMILLQLTVVGYLNTGKTSLINSIMNNEIFTNYSHTPLPMIYYKVHKDKNRAFCVEIEDTSVDVDINNFTNMMRKEITTNSKNMKNPVFSYFENPCIPFQAHDPYNSISYGRMAYFLVFDLTNPSTFEYVKMIYLNMSSIYEKYYTLKPFISLVGNKSDLADENCALVREAENFSNEHMVQLWLTSAYTGKNVKKLFLHTINMVYNNTNLWKYDIEESGSESSES | not soluble
14 | MTNESEVGVKKAAELLRQGATMLEEACPICKMPLFKLKNGDVVCPVHGKVYIVKSDDEEKIVKRNLQLDEIESILIDGLYLSAKKMKEDPLDSERIIQIIRYLDALERLRKIKINSSE | not soluble
15 | MIKFYQYKNCTTCKKAAKFLDEYGVSYEPIDIVQHTPTINEFKTIIANTGVEINKLFNTHGAKYRELDLKNKLQTLSDDEKLELLSSDGMLVKRPLAVMGDKITLGFKEDQYKETWLA | not soluble
16 | MIDLSTEFAGLRLKNPIVAASSGLTRNLKTIKDLEAAGVAAIVLKSLFEEQIEAEMSQMMSPMDYPEAADYINAYVQSNEISKHLDFLREVKREVAIPVIASINCFRSDSWVDFAKQFEEAGADALEINVMRLNTDLFFDANKAEQMYVDIISSLIKAIRIPVVVKLSKSFANIPSLVDKLRAAGAKGVVLFNRSYQPDIDIDKVQMVAGDVFTSAGEISDTIRH | not soluble
17 | ETMVGSFRDTTDKWLSQRLAADIYIYPTNNSAGRMSAWLQDQPEVESVWWRWEKDVPTEHGALQVVSTGPSEGELDSLTVKLGVPNYWYQLHQTKSLMVSESMALKLDIRPGDYIDLQAPLGEGWQVVGVYYDYGNPYNQVMMSHRN | not soluble
